Experimental data taken from patent publication US20210063414A1, “METHODS FOR PREVENTING AND/OR TREATING BONE LOSS CONDITIONS BY MODULATING IRISIN” (Dana-Farber Cancer Institute, Inc., priority 2018, published 2021).

Legend:
Assay in all cases: Crosslinking/co-immunoprecipitation/mass spectrometry (TMT quantitative proteomics) to identify irisin receptors
Assay type in all cases: binding
[1] = target: T1, MLO-Y4 cell surface proteins (Mus musculus, UniProt P55292); details: co-precipitated protein Dsc2 (DSC2_MOUSE)
T1 construct: endogenous in cells; host or cells: MLO-Y4
T1 sequence (P55292 136-902): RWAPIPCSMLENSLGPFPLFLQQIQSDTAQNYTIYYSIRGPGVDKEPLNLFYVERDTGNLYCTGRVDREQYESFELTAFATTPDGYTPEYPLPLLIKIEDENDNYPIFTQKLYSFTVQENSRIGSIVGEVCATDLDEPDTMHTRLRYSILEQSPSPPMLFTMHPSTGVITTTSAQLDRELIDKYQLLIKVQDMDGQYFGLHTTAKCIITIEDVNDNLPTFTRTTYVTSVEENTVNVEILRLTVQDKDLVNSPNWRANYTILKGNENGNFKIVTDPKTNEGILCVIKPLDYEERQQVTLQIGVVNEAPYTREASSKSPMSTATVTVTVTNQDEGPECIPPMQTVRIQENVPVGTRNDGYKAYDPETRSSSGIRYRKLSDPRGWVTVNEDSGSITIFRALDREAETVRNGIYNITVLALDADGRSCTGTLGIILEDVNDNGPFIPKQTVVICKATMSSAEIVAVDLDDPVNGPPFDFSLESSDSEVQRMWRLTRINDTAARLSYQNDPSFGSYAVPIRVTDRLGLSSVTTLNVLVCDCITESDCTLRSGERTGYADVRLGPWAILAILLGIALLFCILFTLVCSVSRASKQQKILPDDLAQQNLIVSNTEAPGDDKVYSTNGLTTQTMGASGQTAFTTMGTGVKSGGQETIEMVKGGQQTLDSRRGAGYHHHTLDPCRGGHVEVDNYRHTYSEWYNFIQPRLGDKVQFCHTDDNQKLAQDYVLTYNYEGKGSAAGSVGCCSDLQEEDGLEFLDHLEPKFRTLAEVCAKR
Method in brief: (§1)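 Relative protein abundance came from 6-plex TMT MS3 quantitation on an Orbitrap Fusion Lumos, after in-gel trypsin digestion of Coomassie-stained SDS-PAGE lanes. Input was a Ni-NTA pulldown (250 mM imidazole elution) of lysates from murine MLO-Y4 cells. These cells were treated on ice with His-tagged irisin or adipsin (10 nM, 20 min) in serum-free medium, then crosslinked with 1.5 mM DTSSP for 30 min.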

[2] = target: T2, MLO-Y4 cell surface proteins (Mus musculus, UniProt Q66GT5); details: co-precipitated protein Ptpmt1 (PTPM1_MOUSE)
T2 construct: endogenous in cells; host or cells: MLO-Y4
T2 sequence (Q66GT5 32-193): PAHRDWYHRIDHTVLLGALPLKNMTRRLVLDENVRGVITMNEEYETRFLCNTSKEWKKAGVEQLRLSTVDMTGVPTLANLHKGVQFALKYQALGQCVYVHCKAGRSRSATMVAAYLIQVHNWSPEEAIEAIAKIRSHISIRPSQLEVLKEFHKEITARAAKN
Method in brief: as §1

[3] = target: T3, MLO-Y4 cell surface proteins (Mus musculus, UniProt Q8R1J9); details: co-precipitated protein Tor2a (TOR2A_MOUSE)
T3 construct: endogenous in cells; host or cells: MLO-Y4
T3 sequence (Q8R1J9 27-321): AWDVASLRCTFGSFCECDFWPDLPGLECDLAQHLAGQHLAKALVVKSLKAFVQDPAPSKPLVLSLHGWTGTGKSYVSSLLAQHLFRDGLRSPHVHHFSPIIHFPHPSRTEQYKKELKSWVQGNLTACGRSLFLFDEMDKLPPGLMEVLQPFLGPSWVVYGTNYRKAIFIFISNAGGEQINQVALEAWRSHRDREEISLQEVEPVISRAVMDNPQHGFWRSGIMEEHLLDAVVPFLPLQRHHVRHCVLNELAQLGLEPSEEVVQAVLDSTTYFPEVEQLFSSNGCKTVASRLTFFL
Method in brief: as §1

B1: irisin: secreted cleaved form of FNDC5; recombinant human/mouse irisin with C-terminal his tag produced in HEK293 cells (protein)
chain: DSPSAPVNVTVRHLKANSAVVSWDVLEDEVVIGFAISQQKKDVRMLRFIQEVNTTTRSCALWDLEEDTEYIVHVQAISIQGQSPASEPVLFKTPREAEKMASKNKDEVTMKE
modifications: left off: small tags and cut ends
notes: secreted cleaved form of FNDC5; recombinant human/mouse irisin with C-terminal his tag produced in HEK293 cells
TMT signal-to-noise ratio [1]: 3.51 | irisin/adipsin TMT signal-to-noise ratio [1]: 0.037 | TMT signal-to-noise ratio [2]: 51.6065 | irisin/adipsin TMT signal-to-noise ratio [2]: 0.559 | TMT signal-to-noise ratio [3]: 338.383 | irisin/adipsin TMT signal-to-noise ratio [3]: 0.486
